The target in assay [1] is murine CXCR4 on mouse ES cells and mouse embryo fibroblasts (mouse) (UniProt P70658). The assay is described as follows: cell-based or functional assay.
For assay [2], the target named is murine CXCR6 on differentiated WT ES cells (mouse) (UniProt Q9EQ16). Description: cell-based or functional assay.
Chain of murine CXCR6 on differentiated WT ES cells (mouse) (Q9EQ16 whole entry): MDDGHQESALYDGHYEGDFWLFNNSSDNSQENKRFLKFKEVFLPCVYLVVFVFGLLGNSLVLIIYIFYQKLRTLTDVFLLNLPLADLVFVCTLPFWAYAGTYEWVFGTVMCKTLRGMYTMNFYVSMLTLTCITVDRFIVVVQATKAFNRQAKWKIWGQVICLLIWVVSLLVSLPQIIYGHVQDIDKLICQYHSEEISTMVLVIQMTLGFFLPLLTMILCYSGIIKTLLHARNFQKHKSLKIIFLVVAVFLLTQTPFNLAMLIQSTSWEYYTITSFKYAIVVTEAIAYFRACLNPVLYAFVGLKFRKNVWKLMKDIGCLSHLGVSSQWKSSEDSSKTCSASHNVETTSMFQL

Chain of murine CXCR4 on mouse ES cells and mouse embryo fibroblasts (mouse) (P70658 whole entry): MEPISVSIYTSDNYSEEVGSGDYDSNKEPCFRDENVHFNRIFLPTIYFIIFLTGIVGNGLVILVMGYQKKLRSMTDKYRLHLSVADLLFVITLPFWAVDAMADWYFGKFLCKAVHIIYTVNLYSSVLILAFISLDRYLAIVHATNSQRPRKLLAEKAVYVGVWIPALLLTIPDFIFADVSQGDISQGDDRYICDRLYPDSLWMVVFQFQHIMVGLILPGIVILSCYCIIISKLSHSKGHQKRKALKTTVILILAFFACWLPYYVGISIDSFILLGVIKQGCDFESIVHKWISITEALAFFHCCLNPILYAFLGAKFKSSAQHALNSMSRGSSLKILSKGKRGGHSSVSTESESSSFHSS

On to chemokine CXCL12 (R&D systems) (ligand), for which the CXCL12 chemotaxis of differentiating WT-ES cells in assay [1] is > 2 fold.
In assay [2], chemokine CXCL16 (R&D) (ligand) returned a chemotaxis of differentiated WT ES cells towards CXCL16 of 2 fold.

(Values after patent publication US20120282183A1.)
